According to publication PMC3229514, “Both hMutSα and hMutSß DNA Mismatch Repair Complexes Participate in 5-Fluorouracil Cytotoxicity”:

Columns and labels:
hMutSβ (hMSH2-hMSH3) = hMutSβ (hMSH2-hMSH3) (human, UniProt P43246;P20585 1-934;1-1137); experiment: SPR (IAsys); 10 mM Mg2+; EMSA: 100 nM hMutSβ, 20 mM HEPES pH 7.6, 1 mM EDTA, 1 mM DTT, 10% glycerol, 100 µg poly(dI-dC), 10 µl; IAsys: 100 nM protein, 25 mM Tris-Cl pH 7.8, 20 mM NaCl; conditions: protein: recombinant, copies: 1;1, label: 5'-32P on S5 (EMSA), 5'-biotin on S5 (IAsys)
hMutSα = hMutSα (human, UniProt P43246;P52701 1-934;1-1360); experiment: as above; conditions: protein: recombinant; copies: 1;1; label: 5'-32P on S5 (EMSA); 5'-biotin on S5 (IAsys); blunt; 5FdU opposite A by the printed complement

B1: 5-FU-containing 38-mer duplex (dsDNA)
DNA 1: TTTCTGACTTGGATACCAUCTATCTATCTATAAAATAT
DNA 2: ATATTTTATAGATAGATAGATGGTATCCAAGTCAGAAA
modifications: 5-fluoro-2'-deoxyuridine at position 19 of strand 1 (written U)
binding signal (hMutSβ (hMSH2-hMSH3); blunt, 5FdU opposite A by the printed complement): ~1.3 fold vs complementary DNA | binding signal (hMutSα): ~2 fold vs hMutSβ on same DNA

B2: AA insertion/deletion loop duplex (dsDNA)
DNA 1: TTTCTGACTTGGATACCATCTATCTATCTATAAAAAATAT
DNA 2: B1 DNA 2
binding signal (hMutSβ (hMSH2-hMSH3); blunt ends, 2-nt AA loop in strand 1 (40 nt vs 38 nt)): ~1.8 fold vs complementary DNA
